From patent US20140213531A1 (POLYPHOR, published 2014)
Bridges are numbered along the chain shown (N, C = ends). [ ]: non-standard residue; d: D form. Nle = CCCC[C@H](N)C(=O)O

T1: Chymase, from human skin (human, UniProt P23946 22-247)
T1 sequence (looked up): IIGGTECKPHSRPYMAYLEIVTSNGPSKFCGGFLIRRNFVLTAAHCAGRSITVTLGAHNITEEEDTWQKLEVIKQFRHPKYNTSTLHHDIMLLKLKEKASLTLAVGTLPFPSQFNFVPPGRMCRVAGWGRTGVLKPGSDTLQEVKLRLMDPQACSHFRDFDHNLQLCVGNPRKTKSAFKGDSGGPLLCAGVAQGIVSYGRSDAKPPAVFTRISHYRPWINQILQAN

T2: Elastase from human neutrophils (human, UniProt P08246 30-247, limits assumed)
T2 sequence (looked up): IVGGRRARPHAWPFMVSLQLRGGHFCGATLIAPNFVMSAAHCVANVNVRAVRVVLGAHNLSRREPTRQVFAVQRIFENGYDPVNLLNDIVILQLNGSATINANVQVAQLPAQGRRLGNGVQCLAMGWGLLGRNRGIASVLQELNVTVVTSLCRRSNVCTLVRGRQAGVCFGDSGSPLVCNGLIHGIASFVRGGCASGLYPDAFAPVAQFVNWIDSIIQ

T3: CathepsinG, from human neutrophils (human, UniProt P08311 21-244)
T3 sequence (looked up): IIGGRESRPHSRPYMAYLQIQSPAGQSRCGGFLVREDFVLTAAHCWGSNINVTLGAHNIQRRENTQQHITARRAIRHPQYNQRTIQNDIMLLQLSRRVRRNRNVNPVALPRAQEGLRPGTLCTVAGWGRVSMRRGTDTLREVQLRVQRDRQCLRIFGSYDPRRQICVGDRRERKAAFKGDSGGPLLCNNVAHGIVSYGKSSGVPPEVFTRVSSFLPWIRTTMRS


Legend:
Test in all cases: cell-based or functional assay
[1] = target: T1, Chymase, from human skin
[2] = target: T2, Elastase from human neutrophils
[3] = target: T3, CathepsinG, from human neutrophils
[4] = target: Thrombin, from Human Plasma, high activity (human, UniProt P00734 328-622)
[5] = target: Trypsin, Iodination grade, from human pancreas (human, UniProt P07477 24-247)
[6] = target: Chymotrypsin, from human pancreas (human, UniProt P17538 19-263)
[7] = target: Tryptase, from human lung (human, UniProt Q15661 31-275, limits assumed)
[8] = target: Urokinase from human urine (human, UniProt P00749 21-431, limits assumed)

Sequence of Chymotrypsin, from human pancreas (P17538 19-263): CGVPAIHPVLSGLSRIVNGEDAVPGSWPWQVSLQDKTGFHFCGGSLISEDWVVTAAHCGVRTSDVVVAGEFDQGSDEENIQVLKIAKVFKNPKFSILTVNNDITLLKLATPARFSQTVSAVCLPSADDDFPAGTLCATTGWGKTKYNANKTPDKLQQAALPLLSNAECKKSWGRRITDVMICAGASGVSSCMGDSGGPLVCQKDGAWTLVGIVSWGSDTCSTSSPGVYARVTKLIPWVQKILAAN
Sequence of Tryptase, from human lung (Q15661 31-275 limits assumed): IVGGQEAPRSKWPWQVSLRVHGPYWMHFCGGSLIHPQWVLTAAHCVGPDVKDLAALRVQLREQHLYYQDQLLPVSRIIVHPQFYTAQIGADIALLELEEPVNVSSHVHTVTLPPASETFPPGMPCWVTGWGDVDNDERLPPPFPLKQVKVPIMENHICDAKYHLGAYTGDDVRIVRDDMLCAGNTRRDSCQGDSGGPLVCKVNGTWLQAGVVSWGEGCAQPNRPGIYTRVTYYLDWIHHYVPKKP

Binder	% inhibition at 100 µM [1] [%]	IC50 [2] [nmol]	IC50 [3] [nmol]	% inhibition at 100 µM [4] [%]	% inhibition at 100 µM [5] [%]	% inhibition at 100 µM [6] [%]	% inhibition at 100 µM [7] [%]	% inhibition at 100 µM [8] [%]
ICTKSDPPYCR (HELM PEPTIDE1{I.C.T.K.S.D.P.P.Y.C.R.[dP].P}$PEPTIDE1,PEPTIDE1,2:R3-10:R3|PEPTIDE1,PEPTIDE1,1:R1-13:R2$$$V2.0; SMILES CC[C@H](C)[C@@H]1NC(=O)[C@@H]2CCCN2C(=O)[C@H]2CCCN2C(=O)[C@H](CCCNC(=N)N)NC(=O)[C@@H]2CSSC[C@H](NC1=O)C(=O)N[C@@H]([C@@H](C)O)C(=O)N[C@@H](CCCCN)C(=O)N[C@@H](CO)C(=O)N[C@@H](CC(=O)O)C(=O)N1CCC[C@H]1C(=O)N1CCC[C@H]1C(=O)N[C@@H](Cc1ccc(O)cc1)C(=O)N2) [Example 18]	32.5	> 100000	47	0	84	25	88.3	
XCTKSDPPICN (HELM PEPTIDE1{[O=C([C@@H](N[*:1])C1CCCCC1)[*:2]].C.T.K.S.D.P.P.I.C.N.[dP].P}$PEPTIDE1,PEPTIDE1,2:R3-10:R3|PEPTIDE1,PEPTIDE1,1:R1-13:R2$$$V2.0; SMILES CC[C@H](C)[C@@H]1NC(=O)[C@@H]2CCCN2C(=O)[C@@H]2CCCN2C(=O)[C@H](CC(=O)O)NC(=O)[C@H](CO)NC(=O)[C@H](CCCCN)NC(=O)[C@H]([C@@H](C)O)NC(=O)[C@@H]2CSSC[C@H](NC1=O)C(=O)N[C@@H](CC(N)=O)C(=O)N1CCC[C@@H]1C(=O)N1CCC[C@H]1C(=O)N[C@@H](C1CCCCC1)C(=O)N2) [Example 37]			35				56	5
ICTKSDPPQCR (HELM PEPTIDE1{I.C.T.K.S.D.P.P.Q.C.R.[dP].P}$PEPTIDE1,PEPTIDE1,2:R3-10:R3|PEPTIDE1,PEPTIDE1,1:R1-13:R2$$$V2.0; SMILES CC[C@H](C)[C@@H]1NC(=O)[C@@H]2CCCN2C(=O)[C@H]2CCCN2C(=O)[C@H](CCCNC(=N)N)NC(=O)[C@@H]2CSSC[C@H](NC1=O)C(=O)N[C@@H]([C@@H](C)O)C(=O)N[C@@H](CCCCN)C(=O)N[C@@H](CO)C(=O)N[C@@H](CC(=O)O)C(=O)N1CCC[C@H]1C(=O)N1CCC[C@H]1C(=O)N[C@@H](CCC(N)=O)C(=O)N2) [Example 17]	27.6	> 100000	55	0	90	16	90.4	
ICTXSDPPICR (HELM PEPTIDE1{I.C.T.[Nle].S.D.P.P.I.C.R.[dP].P}$PEPTIDE1,PEPTIDE1,2:R3-10:R3|PEPTIDE1,PEPTIDE1,1:R1-13:R2$$$V2.0; SMILES CCCC[C@@H]1NC(=O)[C@H]([C@@H](C)O)NC(=O)[C@@H]2CSSC[C@H](NC(=O)[C@H]([C@@H](C)CC)NC(=O)[C@@H]3CCCN3C(=O)[C@@H]3CCCN3C(=O)[C@H](CC(=O)O)NC(=O)[C@H](CO)NC1=O)C(=O)N[C@@H](CCCNC(=N)N)C(=O)N1CCC[C@@H]1C(=O)N1CCC[C@H]1C(=O)N[C@@H]([C@@H](C)CC)C(=O)N2) [Example 22]	98.8	> 100000	55		84	0	3.8	5.7

Second part, the binder after the results:

% inhibition at 100 µM [1] [%]	IC50 [2] [nmol]	IC50 [3] [nmol]	% inhibition at 100 µM [4] [%]	% inhibition at 100 µM [5] [%]	% inhibition at 100 µM [6] [%]	% inhibition at 100 µM [7] [%]	% inhibition at 100 µM [8] [%]	Binder
32.5	> 100000	47	0	84	25	88.3		ICTKSDPPYCR (HELM PEPTIDE1{I.C.T.K.S.D.P.P.Y.C.R.[dP].P}$PEPTIDE1,PEPTIDE1,2:R3-10:R3|PEPTIDE1,PEPTIDE1,1:R1-13:R2$$$V2.0; SMILES CC[C@H](C)[C@@H]1NC(=O)[C@@H]2CCCN2C(=O)[C@H]2CCCN2C(=O)[C@H](CCCNC(=N)N)NC(=O)[C@@H]2CSSC[C@H](NC1=O)C(=O)N[C@@H]([C@@H](C)O)C(=O)N[C@@H](CCCCN)C(=O)N[C@@H](CO)C(=O)N[C@@H](CC(=O)O)C(=O)N1CCC[C@H]1C(=O)N1CCC[C@H]1C(=O)N[C@@H](Cc1ccc(O)cc1)C(=O)N2) [Example 56]
		47				57	1	XCTKSDPPYCY (HELM PEPTIDE1{[O=C([C@@H](N[*:1])C1CCCCC1)[*:2]].C.T.K.S.D.P.P.Y.C.Y.[dP].P}$PEPTIDE1,PEPTIDE1,2:R3-10:R3|PEPTIDE1,PEPTIDE1,1:R1-13:R2$$$V2.0; SMILES C[C@@H](O)[C@@H]1NC(=O)[C@@H]2CSSC[C@H](NC(=O)[C@H](Cc3ccc(O)cc3)NC(=O)[C@@H]3CCCN3C(=O)[C@@H]3CCCN3C(=O)[C@H](CC(=O)O)NC(=O)[C@H](CO)NC(=O)[C@H](CCCCN)NC1=O)C(=O)N[C@@H](Cc1ccc(O)cc1)C(=O)N1CCC[C@@H]1C(=O)N1CCC[C@H]1C(=O)N[C@@H](C1CCCCC1)C(=O)N2) [Example 65]
98.8	> 100000	55		84	0	3.8	5.7	ICTXSDPPICR (HELM PEPTIDE1{I.C.T.[Nle].S.D.P.P.I.C.R.[dP].P}$PEPTIDE1,PEPTIDE1,2:R3-10:R3|PEPTIDE1,PEPTIDE1,1:R1-13:R2$$$V2.0; SMILES CCCC[C@@H]1NC(=O)[C@H]([C@@H](C)O)NC(=O)[C@@H]2CSSC[C@H](NC(=O)[C@H]([C@@H](C)CC)NC(=O)[C@@H]3CCCN3C(=O)[C@@H]3CCCN3C(=O)[C@H](CC(=O)O)NC(=O)[C@H](CO)NC1=O)C(=O)N[C@@H](CCCNC(=N)N)C(=O)N1CCC[C@@H]1C(=O)N1CCC[C@H]1C(=O)N[C@@H]([C@@H](C)CC)C(=O)N2) [Example 59]
		46				0	7	cyclo([Nle]CTKSDPPICT[dP]P) (disulfide 2-10) [Example 42]
0	> 10000	82	7.9	96	0	30.5	6.2	FCTKSDPPICS (HELM PEPTIDE1{F.C.T.K.S.D.P.P.I.C.S.[dA].P}$PEPTIDE1,PEPTIDE1,2:R3-10:R3|PEPTIDE1,PEPTIDE1,1:R1-13:R2$$$V2.0; SMILES CC[C@H](C)[C@@H]1NC(=O)[C@@H]2CCCN2C(=O)[C@@H]2CCCN2C(=O)[C@H](CC(=O)O)NC(=O)[C@H](CO)NC(=O)[C@H](CCCCN)NC(=O)[C@H]([C@@H](C)O)NC(=O)[C@@H]2CSSC[C@H](NC1=O)C(=O)N[C@@H](CO)C(=O)N[C@H](C)C(=O)N1CCC[C@H]1C(=O)N[C@@H](Cc1ccccc1)C(=O)N2) [Example 49]
